Where no end group is shown, it is not given here.
Molecular target: T1, epitope peptide Cys-CE3C long (also: biotin label, site not given here)
T1 peptide: CSVNVDKQPKYEYSL
Test: competitive ELISA, unlabeled vs biotin-labeled peptide, antibody on anti-human IgG plate
Method: (§1) A diluted solution of the obtained recombinant humanized antibody, a biotin-labeled immunogen peptide, and Streptavidin-HRP (manufactured by PIERCE) were added to an anti-human IgG antibody-immobilized plate, and reacted overnight at 4° C. […] Next, a recombinant human antibody at the dilution rate, a biotin-labeled immunogen peptide, and Streptavidin-HRP (manufactured by PIERCE) were added. At the same time, a dilution series of unlabeled immunogenic peptide was added and reacted overnight at 4° C. After washing twice with ELISA wash buffer, TMB-Substrate Chromogen (manufactured by Thermo Fisher Scientific) was added to develop color, the reaction was stopped with an equal amount of 0.5N sulfuric acid, and the absorbance at 450 nm was measured. The concentration of the unlabeled peptide which attenuated the signal of the biotin-labeled peptide by half was defined as the affinity (IC50).
A mutant having the heavy chain variable region represented by IGHV7-4-1 Q43R, G44S, N58L, N100D, T100aD, R94P (SEQ ID NO: 33) and the light chain variable region represented by IGKV4-1 (SEQ ID NO: 18) produced in Example 3 was produced. New mutants (h15H11-55 to 67) were produced in which various mutations were introduced into the light chain human framework sequence of the produced mutants, and affinity evaluation was performed on the produced mutants by the method described in Example 5.

Binder | IC50 [nM]
h15H11-64 (antibody, human IgG4 S228P, kappa, hIgG4Pro/hIgK) heavy: not shown light: DIVMTQSPDSLAVSLGERATINCRASDSVDNYGISFLNWFQQKPGQPPKLLIYAASSQGSGVPARFSGSGSGTDFTLTISSMQAEDVAVYYCQQSKEFPWTFGGGTKVEIKRTVAAPSVFIFPPSDEQLKSGTASVVCLLNNFYPREAKVQWKVDNALQSGNSQESVTEQDSKDSTYSLSSTLTLSKADYEKHKVYACEVTHQGLSSPVTKSFNRGEC | 0.68
h15H11-67 (antibody, human IgG4 S228P, kappa, hIgG4Pro/hIgK) heavy: not shown light: DIVLTQSPASLAVSLGQRATINCRASDSVDNYGISFLNWFQQKPGQPPKLLIYAASSQGSGVPARFSGSGSGTDFTLTISSMQAEDVAVYYCQQSKEFPWTFGGGTKVEIKRTVAAPSVFIFPPSDEQLKSGTASVVCLLNNFYPREAKVQWKVDNALQSGNSQESVTEQDSKDSTYSLSSTLTLSKADYEKHKVYACEVTHQGLSSPVTKSFNRGEC | 0.46
h15H11-66 (antibody, human IgG4 S228P, kappa, hIgG4Pro/hIgK) heavy: not shown light: DIVLTQSPASLAVSLGERATINCRASDSVDNYGISFLNWFQQKPGQPPKLLIYAASSQGSGVPARFSGSGSGTDFTLTISSMQAEDVAVYYCQQSKEFPWTFGGGTKVEIKRTVAAPSVFIFPPSDEQLKSGTASVVCLLNNFYPREAKVQWKVDNALQSGNSQESVTEQDSKDSTYSLSSTLTLSKADYEKHKVYACEVTHQGLSSPVTKSFNRGEC | 0.53
h15H11-60 (antibody, human IgG4 S228P, kappa, V domains shown, hIgG4Pro/hIgK) VH: QVQLVQSGSELKKPGASVKVSCKASGYTFTDYNMHWVRQAPGRSLEWMGRINPKNGVILSNEKFKDRFVFSLDTSVSTAYLQISSLKAEDTAVYYCAPSYYGGDDDAYWGQGTLVTVSS VL: DIVMTQSPDSLAVSLGERATINCRASDSVDNYGISFLNWFQQKPGQPPKLLIYAASSQGSGVPDRFSGSGSGTDFTLTISSMQAEDVAVYYCQQSKEFPWTFGGGTKVEIKR | 0.79
h15H11-62 (antibody, human IgG4 S228P, kappa, V domains shown, hIgG4Pro/hIgK) VH: QVQLVQSGSELKKPGASVKVSCKASGYTFTDYNMHWVRQAPGRSLEWMGRINPKNGVILSNEKFKDRFVFSLDTSVSTAYLQISSLKAEDTAVYYCAPSYYGGDDDAYWGQGTLVTVSS VL: DIVMTQSPDSLAVSLGERATINCRASDSVDNYGISFLNWFQQKPGQPPKLLIYAASSQGSGVPDRFSGSGSGTDFTLTISSMEAEDVAVYYCQQSKEFPWTFGGGTKVEIKR | 0.73
h15H11-58 (antibody, human IgG4 S228P, kappa, V domains shown, hIgG4Pro/hIgK) VH: QVQLVQSGSELKKPGASVKVSCKASGYTFTDYNMHWVRQAPGRSLEWMGRINPKNGVILSNEKFKDRFVFSLDTSVSTAYLQISSLKAEDTAVYYCAPSYYGGDDDAYWGQGTLVTVSS VL: DIVMTQSPDSLAVSLGERATINCRASDSVDNYGISFLNWFQQKPGQPPKLLIYAASSQGSGVPDRFSGSGSGTDFTLTISSMQAEDVAMYYCQQSKEFPWTFGGGTKVEIKR | 0.78
h15H11-57 (antibody, human IgG4 S228P, kappa, V domains shown, hIgG4Pro/hIgK) VH: QVQLVQSGSELKKPGASVKVSCKASGYTFTDYNMHWVRQAPGRSLEWMGRINPKNGVILSNEKFKDRFVFSLDTSVSTAYLQISSLKAEDTAVYYCAPSYYGGDDDAYWGQGTLVTVSS VL: DIVMTQSPDSLAVSLGERATINCRASESVDNYGISFMNWFQQKPGQPPKLLIYAASSQGSGVPDRFSGSGSGTDFTLTISSMQAEDVAVYYCQQSKEFPWTFGGGTKVEIKR | 0.89
h15H11-63 (antibody, human IgG4 S228P, kappa, V domains shown, hIgG4Pro/hIgK) VH: QVQLVQSGSELKKPGASVKVSCKASGYTFTDYNMHWVRQAPGRSLEWMGRINPKNGVILSNEKFKDRFVFSLDTSVSTAYLQISSLKAEDTAVYYCAPSYYGGDDDAYWGQGTLVTVSS VL: DIVMTQSPDSLAVSLGERATINCRASDSVDNYGISFLNWFQQKPGQPPKLLIYAASSQGSGVPDRFSGSGSGTDFTLTISSMQAEDTAVYYCQQSKEFPWTFGGGTKVEIKR | 0.64
h15H11-56 (antibody, human IgG4 S228P, kappa, V domains shown, hIgG4Pro/hIgK) VH: QVQLVQSGSELKKPGASVKVSCKASGYTFTDYNMHWVRQAPGRSLEWMGRINPKNGVILSNEKFKDRFVFSLDTSVSTAYLQISSLKAEDTAVYYCAPSYYGGDDDAYWGQGTLVTVSS VL: DIVMTQSPDSLAVSLGERATINCRASESVDNYGISFMNWFQQKPGQPPKLLIYAASSQGSGVPDRFSGSGSGTDFTLTINPMQAEDVAVYYCQQSKEFPWTFGGGTKVEIKR | 0.85
h15H11-55 (antibody, human IgG4 S228P, kappa, V domains shown, hIgG4Pro/hIgK) VH: QVQLVQSGSELKKPGASVKVSCKASGYTFTDYNMHWVRQAPGRSLEWMGRINPKNGVILSNEKFKDRFVFSLDTSVSTAYLQISSLKAEDTAVYYCAPSYYGGDDDAYWGQGTLVTVSS VL: DIVMTQSPDSLAVSLGERATINCRASESVDNYGISFMNWFQQKPGQPPKLLIYAASSQGSGVPDRFSGSGSGTDFTLTISSMQAEDVAMYYCQQSKEFPWTFGGGTKVEIKR | 0.82
h15H11-59 (antibody, human IgG4 S228P, kappa, V domains shown, hIgG4Pro/hIgK) VH: QVQLVQSGSELKKPGASVKVSCKASGYTFTDYNMHWVRQAPGRSLEWMGRINPKNGVILSNEKFKDRFVFSLDTSVSTAYLQISSLKAEDTAVYYCAPSYYGGDDDAYWGQGTLVTVSS VL: DIVMTQSPDSLAVSLGERATINCRASDSVDNYGISFLNWFQQKPGQPPKLLIYAASSQGSGVPDRFSGSGSGTDFTLTINPMQAEDVAVYYCQQSKEFPWTFGGGTKVEIKR | 0.8
h15H11-65 (antibody, human IgG4 S228P, kappa, V domains shown, hIgG4Pro/hIgK) VH: QVQLVQSGSELKKPGASVKVSCKASGYTFTDYNMHWVRQAPGRSLEWMGRINPKNGVILSNEKFKDRFVFSLDTSVSTAYLQISSLKAEDTAVYYCAPSYYGGDDDAYWGQGTLVTVSS VL: DIVMTQSPDSLAVSLGERATINCRASDSVDNYGISFLNWFQQKPGQPPKLLIYAASSQGSGVPARFSGSGSGTDFTLTISSMQAEDVAMYYCQQSKEFPWTFGGGTKVEIKR | 0.75
h15H11-61 (antibody, human IgG4 S228P, kappa, V domains shown, hIgG4Pro/hIgK) VH: QVQLVQSGSELKKPGASVKVSCKASGYTFTDYNMHWVRQAPGRSLEWMGRINPKNGVILSNEKFKDRFVFSLDTSVSTAYLQISSLKAEDTAVYYCAPSYYGGDDDAYWGQGTLVTVSS VL: DIVMTQSPDSLAVSLGERATINCRASDSVDNYGISFLNWFQQKPGQPPKLLIYAASSQGSGVPDRFSGSGSGTDFTLTINPMEAEDTANYYCQQSKEFPWTFGGGTKVEIKR | 0.79

Molecular target: T1, epitope peptide Cys-CE3C long
Test: as above
Remark: another data set of the same source
Method: as §1
Mutants (h15H11-44 to 54) in which various mutations were introduced into the light chain human framework sequence of h15H11-2 (heavy chain variable region: IGHV7-4-1 Q43R, G44S, N58L, N100D, T100aD, R94P (SEQ ID NO: 33)/light chain variable region: IGKV7-3 E27D, M33L, Y36F, V78M (SEQ ID NO: 55)) produced in Example 7 were produced. Affinity evaluation was performed on the produced mutants by the method described in Example 5.

Binder | IC50 [nM]
h15H11-44 (antibody, human IgG4 S228P, kappa, V domains shown, hIgG4Pro/hIgK) VH: QVQLVQSGSELKKPGASVKVSCKASGYTFTDYNMHWVRQAPGRSLEWMGRINPKNGVILSNEKFKDRFVFSLDTSVSTAYLQISSLKAEDTAVYYCAPSYYGGDDDAYWGQGTLVTVSS VL: DIVLTQSPASLAVSPGQRATITCRASDSVDNYGISFLNWFQQKPGQPPKLLIYAASSQGSGVPARFSGSGSGTDFTLTINPMEAEDTANYYCQQSKEFPWTFGGGTKVEIKR | 0.51
h15H11-46 (antibody, human IgG4 S228P, kappa, V domains shown, hIgG4Pro/hIgK) VH: QVQLVQSGSELKKPGASVKVSCKASGYTFTDYNMHWVRQAPGRSLEWMGRINPKNGVILSNEKFKDRFVFSLDTSVSTAYLQISSLKAEDTAVYYCAPSYYGGDDDAYWGQGTLVTVSS VL: DIVLTQSPASLAVSPGQRATITCRASDSVDNYGISFLNWFQQKPGQPPKLLIYAASSQGSGVPARFSGSGSGTDFTLTINPMEAQDTANYYCQQSKEFPWTFGGGTKVEIKR | 0.5
h15H11-49 (antibody, human IgG4 S228P, kappa, V domains shown, hIgG4Pro/hIgK) VH: QVQLVQSGSELKKPGASVKVSCKASGYTFTDYNMHWVRQAPGRSLEWMGRINPKNGVILSNEKFKDRFVFSLDTSVSTAYLQISSLKAEDTAVYYCAPSYYGGDDDAYWGQGTLVTVSS VL: DIVLTQSPASLAVSPGQRATITCRASDSVDNYGISFLNWFQQKPGQPPKLLIYAASSQGSGVPARFSGSGSGTDFTLTINPMEAVDTANYYCQQSKEFPWTFGGGTKVEIKR | 0.62
h15H11-45 (antibody, human IgG4 S228P, kappa, V domains shown, hIgG4Pro/hIgK) VH: QVQLVQSGSELKKPGASVKVSCKASGYTFTDYNMHWVRQAPGRSLEWMGRINPKNGVILSNEKFKDRFVFSLDTSVSTAYLQISSLKAEDTAVYYCAPSYYGGDDDAYWGQGTLVTVSS VL: DIVLTQSPASLAVSPGQRATITCRASDSVDNYGISFLNWFQQKPGQPPKLLIYAASSQGSGVPARFSGSGSGTDFTLTINPMEAADTANYYCQQSKEFPWTFGGGTKVEIKR | 0.5
h15H11-47 (antibody, human IgG4 S228P, kappa, V domains shown, hIgG4Pro/hIgK) VH: QVQLVQSGSELKKPGASVKVSCKASGYTFTDYNMHWVRQAPGRSLEWMGRINPKNGVILSNEKFKDRFVFSLDTSVSTAYLQISSLKAEDTAVYYCAPSYYGGDDDAYWGQGTLVTVSS VL: DIVLTQSPASLAVSPGQRATITCRASDSVDNYGISFLNWFQQKPGQPPKLLIYAASSQGSGVPARFSGSGSGTDFTLTINPMEAFDTANYYCQQSKEFPWTFGGGTKVEIKR | 0.53
h15H11-48 (antibody, human IgG4 S228P, kappa, V domains shown, hIgG4Pro/hIgK) VH: QVQLVQSGSELKKPGASVKVSCKASGYTFTDYNMHWVRQAPGRSLEWMGRINPKNGVILSNEKFKDRFVFSLDTSVSTAYLQISSLKAEDTAVYYCAPSYYGGDDDAYWGQGTLVTVSS VL: DIVLTQSPASLAVSPGQRATITCRASDSVDNYGISFLNWFQQKPGQPPKLLIYAASSQGSGVPARFSGSGSGTDFTLTINPMEALDTANYYCQQSKEFPWTFGGGTKVEIKR | 0.51

From US20250163145A1 (SHIONOGI, published 2025)
